Reference: the RNAGym collection of RNA variant scans (doi:10.1073/pnas.2313332121)
Fewer inactive variants are shown than the library holds.

B1: TPR 5TU (parent)
chain: GGAUCUUCUCGAUCUAACAAAAAAGACAAAUCUGCCACAAAGCUUGAGAGCAUCUUCGGAUGCAGAGGCGGCAGCCUUCGGUGGCGCGAUAGCGCCAACGUUCUCAACUAUGACACGCAAAACGCGUGCUCCGUUGAAUGGAGUUUAUCAUG

Variants of: B1
Test: polymerase ribozyme fitness, log enrichment relative to wild type (log ratio); higher = more active; in vitro selection for triplet polymerase activity
Method in brief: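 Mutant libraries for each subunit of a heterodimeric triplet polymerase ribozyme were made by PCR and then transcribed. Each library underwent one round of in vitro selection in triplicate: annealing with a biotinylated primer, the partner subunit and triplets, frozen incubation at −7 °C, gel excision of extended constructs, streptavidin-bead capture and RT-PCR. Input and output libraries were Illumina-sequenced, and only genotypes with ≥10 input reads and ≥1 read per output were kept. Fitness is the logarithm, base 2, of genotype enrichment over wild-type enrichment, computed from inverse-variance-weighted replicate averages.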

| Variant | polymerase ribozyme fitness (log ratio) |
| --- | --- |
| GGAUCUUCUCGAUCUAACAAAAAAGACAAAUCUGCCACAAAGCUUGAGAGCAUCUUCGGAUGCAGAGGCGGCAGCCUUCGGUGGCGCGGUACCGCCCACGUUCUCAACUAUGAUACGCAAAACGCGUGCUCCGUUGAAUGGAGUUUAUCAUG | -3.82 |
| GGAUCUUCUCGAUGUAACAAAAAAGACAACUCUGCCACAAAGCUUGAGAACAUCUUCGGAUGCAGAGGCGGCAGCUUUCGGUGGCGAGAUAGCGCCAACGUUCUCAGCUACGACACGCAUAACGCGUGCUCCGUUGAAUGGAGUUUAUCAUG | ≤ -4.2 |
| GGAUCUUCUCGAUCUAACAAAAAAGACAAAUCUGCCACAAAGCUUGAGAGCAUCUUCGGAUGCAGAGGCGGCAGCCUUCGGUGGCGCGAUAGCCCCAACGUUCUCAACUAUGACACGCAAAACGCGUUCUCCGUUGAAUGGAGUUUAUCAUG | -3.18 |
| GGAUCUUCUCGAUCUAACAGAAAAGACAAAUCUGCCACAAAGCUUGAGAGCAACUUCGGAUGCAGAGGCGGCAGCCUUCGGUGGCGCGAUAGCGCCAACGUUCUCAACUAUGACACGCAAAACGCGUGCUCCGUUGAAUGGAGUUUAUCAUG | -1.01 |
| GGAUCUUCUCGACCUAACAAAAAAGUCAAAUCUGCCACAAAGCUUGAGAGCCUCAUCGGAUGCAGAGGCGGCAGCCUUCGGUGGCGCACUAGCGCCAAUGUUCUCAACUAUGACACGCAAAACGCGUGCUCCGUGGAAUGGUGUUUAUCAUG | ≤ -4.2 |
| GGAUCUUCUCGAUCUAACACAAAAGACAAAUCUGCCACAAAGCUUGAGAGCGUCUUCGGAUGCAGAGGCGGCAGCCUUCGGUGGCGCGAUAGCGCCAACGUUCUCAACUAUGACACGCAAAACGCGUGCUCCGUUGAAUGGGGUUUAUCAUG | -2.02 |
| GGAUCUUCUCGAUCUAAUAAAAAAGACAAAUCUGCCACAAAGCUUGAGAGCAUCUUCGGAUGCAGAGGCGGCAGCCUUCGGUGGAGCGAUAGCGCCAACGUUCUCAACUAUGACACGCAAAACGCGUGCUCCGUUGAAUGGAGGUUAUCAUG | 0.299 |
| GGAUCUUCUCGAUCUAACAAAAAAGACAAAUCUGCCACAAAGCUUGAGAGCAACUUCGGAUGCAGAGGCGGCAGCCUUCGGUGGCGCGAUAGCGCCAACGUUCUCAACUAUGACACGCAAAACGCUUGCUCCGUUGAAUGGAGUUUAUCAUG | 0.134 |
| GGAUCUUCUCGAUCUAACAAAAAAGACAAAUCUGCCACAAAGCUUGAAAGCAUCUACGGAUGCAGAGGCGGCAGCCUUCGGUGGUGCGAUAGCGCCAACGUUCUCAACUGUGACACGCAAAACGCGUGCUCCGUUGAAUGUAGUUUAUCAUG | ≤ -4.2 |
| GGAUCUUCUCGAUCUAACAAAAAAGACAAAUCUGCCACAAAGCUUGAGAGCAACUUCGAAUGCAGAGGCGGCAGCCUUCGGUGGGGCGAUAGCGCCAACGUUCUCAACUAUGACACGCAAAACGCGUGCUCCGUUGAAUGGAGUUUAUUAUG | -3.31 |
| GGAUCUUCUCGAUCUAACAAAAAAGUCAAAUCUGCCACAAAGCUUGAGGGCAUCUUCGGAUGCAGAGGCGGCAGCCUUCGGUGGCGCGAUAGCGCCAACGGUCUCAACUAUGACACGCAGAACGCGUGCUCCGUUGAAUGGAGUUUCUCAUG | ≤ -4.2 |
| GGAUCUUCUCGAUAUAUCAAGAAAGACAAAUCUGCCACAAAGCUUGAGAGCAUUUUCGGGUGCAGAGGCGGCAGCCUUCGGUGGCGCGAUAGCGCCAACGUUCUCAACUAUGACACGCAAAACGCGUGCUCCGUUGAAUGGAGUUUAUCAUG | -3.75 |
| GGAUCUUCUCGAGCUAACAAAAAAGACAAAUCUGCCACAAAGCUUGAGAGCAUCUUCGGAUGCAGAGGCGGCAGCCUUCGGUGGCGCGAUAGGGCCAACGUUCUCAACUAUGACACGCAAAACGCGUGCUCCGUUGAAUGGAGUUUAUCAUG | -3.88 |
| GGAUCUUCUCGAUCUAACAAAAAAGACAAAUCUGCCACAAAGCUUGAGAGCCGCUUCGGAUGCAGAGGCGGUAGCCUUCGGUAGCGCGAUAGCGCCAACGUUCUCAACUAUGACACGCAAAACACGUGCUCCGUUGAAUGGAGUUUAUCAUG | ≤ -4.2 |
| GGAUCUUCUCGAUCUACUAAAAAAGACAAAUCUGCCACAAAGUUUGAGAGCAUCUUCGGAUGCAGAGGCGGCAGCCUUCGGUGGCGCGAUAGCGCCGACGUUCUCAACUAUGACACGCAAAACGCGUGCUCCGUUGAAUGGAGUUUAACAUG | ≤ -4.2 |
| GGAUCUUCUCGAUCUAACAAAAAAGACAAAUCUGCCACAAAGCUUGAGAGCAUCUUCGGAUGCAGAGGCGGCAGCCUUCGGUGGCGCGUUAGCGCCAACGUUCUCAACUAUGACACGCAAAACGCGUGCUCCGUUGAAUGGAGUUUAUCCUG | -3.66 |
| GGAUCUUCUCGAUCUAACAAAAAAGACAAAUCUGCCACAAAGCUUGAGAGCCUCUUCGGAUGCAGAGGCGGCAGCCUUCGGUGUCGCGAUAGCGCCAACGUUCUCAACUAUGACACGCAAAACGCGUGCUCCGUUGAAUGGAGGUUAUCAUG | -2.05 |
| GGAUCUUCUCGAUCUAACAAAAAAGACAUAUCUGCCACAAAGCUUGAGAGCCUCUUCGGAUGCAGAGCCGGCAGCCUUCGGUGGCGCGAUAGCGCUAAGGUUCUCAACUAUGACACGCAAUACGCAUGCUCCGUUGAAUGGAGUUUAUCUUG | ≤ -4.2 |
| GGAUCUUCUCGAUCUAACAAAAAAGACAAAUUUGCCACAAAGCUUGAGAGCGUCGUCGGAUGCAGAGGCGGCAGCCUUCGGUGGCGCGAUAGCCCCAACGUUCUCAACUAUGACACGCAAAACGCGUGCUCCGUUGAAUGGAGUUUAUCAUG | -3.43 |
